Measurements: the supplement of paper PMC7125110
± gives the standard error. For part of these data: This sample holds only a part of the variants without activity.

B1: glmS ribozyme (parent)
chain: AUAAAAGCGCCAGAACUACAGAAAUGUAGUUGACGAGGAGGAGGUUUAUCGAAUUUUCGGCGGAUGCCUCCAAA

Legend:
Conditions in all cases: with glucosamine-6-phosphate
[1] = variants of: B1; assay: kcat; higher = faster cleavage; RNA array
In short: (§1)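 kcat and KM were obtained from weighted Michaelis–Menten fits across concentrations of kobs values. Those came from one- or two-exponential decay fits to per-tile medians normalised to baseline and to non-cleaving reference variants. The variants were barcoded ribozymes transcribed in situ by E. coli RNA polymerase on sequenced MiSeq chips and tracked through a hybridised Cy3 probe at 37 °C, with 40 μM to 10 mM glucosamine-6-phosphate in HEPES/KCl/Mg(OAc)2 buffer flowed in.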

[2] = variants of: B1; assay: self-cleavage kobs at 160 uM GlcN6P; higher = faster cleavage; RNA array
In short: as §1

[3] = variants of: B1; assay: self-cleavage kobs at 2500 uM GlcN6P; higher = faster cleavage; RNA array
In short: as §1

[4] = variants of: B1; assay: self-cleavage kobs at 10000 uM GlcN6P; higher = faster cleavage; RNA array
In short: as §1

[5] = variants of: B1; assay: KM; higher = weaker cofactor use; RNA array
In short: as §1

[6] = variants of: B1; assay: self-cleavage kobs at 640 uM GlcN6P; higher = faster cleavage; RNA array
In short: as §1

[7] = variants of: B1; assay: self-cleavage kobs at 40 uM GlcN6P; higher = faster cleavage; RNA array
In short: as §1

Variant	kcat [1] [s⁻¹]	self-cleavage kobs at 160 uM GlcN6P [2] [s⁻¹]	self-cleavage kobs at 2500 uM GlcN6P [3] [s⁻¹]	self-cleavage kobs at 10000 uM GlcN6P [4] [s⁻¹]	KM [5] [µM]	self-cleavage kobs at 640 uM GlcN6P [6] [s⁻¹]	self-cleavage kobs at 40 uM GlcN6P [7] [s⁻¹]
C50U U69C	2.88e-05 ± 9.3e-06	4.48e-05 ± 1.5e-05	4.75e-05 ± 1.5e-05	–	–	–	–
C50U U69G	2.82e-05 ± 7.6e-06	3.94e-05 ± 1.2e-05	3.39e-05 ± 1.4e-05	–	–	–	–
U49C C71G	1.02e-05 ± 5.3e-07	–	–	–	–	–	–
G51A C67A	1.27e-05 ± 2.8e-06	–	–	–	–	–	–
A52G U69A	5.52e-05 ± 3e-06	–	5.1e-05 ± 1.7e-05	5.51e-05 ± 8.5e-06	–	–	–
U49C C61U	1.01e-05 ± 1.5e-06	–	–	< 1e-05	–	–	–
C50A U55A	1.62e-05 ± 1.3e-06	–	–	–	3470 ± 790	–	–
A48U C58G	1.01e-05 ± 4e-06	–	–	–	–	–	–
G51U U65G G66C	< 1e-05	–	–	< 1e-05	–	< 1e-05	–
A52U C70G	7.01e-05 ± 1.1e-05	–	8.15e-05 ± 8.6e-06	5.93e-05 ± 7.6e-06	–	5.38e-05 ± 1.1e-05	–
A48C G66U	2.77e-05 ± 2.1e-07	–	–	–	2750 ± 61	–	–
C50G A64U	5.29e-05 ± 1.7e-05	6.24e-05 ± 1.5e-05	5.11e-05 ± 1.7e-05	–	–	9.1e-05 ± 2.3e-05	–
U49C C67U	1e-05 ± 1e-06	–	–	–	267 ± 130	–	–
G51A	1.01e-05 ± 2.8e-07	–	–	–	965 ± 160	–	–
G51A G59A C70U	1.55e-05 ± 3.5e-06	–	–	< 1e-05	–	–	< 1e-05
A53C U65G	0.00136 ± 0.0002	8.25e-05 ± 1.4e-05	0.000555 ± 6.7e-05	0.00104 ± 0.0001	3420 ± 810	0.000197 ± 2.5e-05	–
C50U U57C G63A	2.57e-05 ± 3.6e-06	–	–	–	–	–	–
U47G U55A	0.00811 ± 0.0025	0.000855 ± 0.00014	0.00514 ± 0.00081	0.00878 ± 0.0013	1410 ± 600	0.00187 ± 0.00028	0.000281 ± 3.1e-05
U49G C70G	4.12e-05 ± 2.8e-06	3.09e-05 ± 1.3e-05	3.6e-05 ± 8e-06	4.11e-05 ± 6e-06	–	4.22e-05 ± 9e-06	–

Variant	kcat [1] [s⁻¹]	self-cleavage kobs at 160 uM GlcN6P [2] [s⁻¹]	self-cleavage kobs at 2500 uM GlcN6P [3] [s⁻¹]	self-cleavage kobs at 10000 uM GlcN6P [4] [s⁻¹]	KM [5] [µM]	self-cleavage kobs at 640 uM GlcN6P [6] [s⁻¹]	self-cleavage kobs at 40 uM GlcN6P [7] [s⁻¹]
C50A G59U	< 1e-05	< 1e-05	–	< 1e-05	181 ± 24	< 1e-05	< 1e-05
A52G U54C	0.00197 ± 7e-05	0.000111 ± 1.8e-05	0.000985 ± 0.00015	0.00153 ± 0.00019	2700 ± 150	0.000379 ± 5.7e-05	2.55e-05 ± 1.1e-05
A48U U65C	4.55e-05 ± 6.5e-06	–	4.16e-05 ± 1.4e-05	3.92e-05 ± 1.5e-05	–	–	< 1e-05
U49G U69C	0.000152 ± 6.9e-06	–	0.000131 ± 2.7e-05	0.00014 ± 3.8e-05	466 ± 86	8.8e-05 ± 2.4e-05	–
G51C U69A	< 1e-05	–	–	–	–	–	< 1e-05
C50G C67A	0.000178 ± 2.6e-05	0.000153 ± 2e-05	0.000183 ± 2.4e-05	0.000145 ± 1.9e-05	–	0.000259 ± 3.2e-05	9.53e-05 ± 1.2e-05
G51U C68A	2.77e-05 ± 5e-06	–	–	–	–	–	–
C50U U57A	1.46e-05 ± 7e-07	–	–	< 1e-05	397 ± 84	–	< 1e-05
G51U C70G	3.09e-05 ± 1.2e-05	–	4.11e-05 ± 1e-05	–	–	5.38e-05 ± 1.4e-05	–
A53G U65G	0.00217 ± 0.00093	0.000202 ± 4e-05	0.00134 ± 0.00033	–	–	0.000884 ± 0.00018	9.01e-05 ± 2.5e-05
A53G U65A	0.00318 ± 0.00053	0.000257 ± 5e-05	0.00184 ± 0.00046	0.00272 ± 0.00056	1530 ± 350	0.00114 ± 0.00019	8.56e-05 ± 1.5e-05
G51A G66C	< 1e-05	–	–	–	510 ± 240	–	–
A53G C68A	5.55e-05 ± 7.9e-06	5.86e-05 ± 1.5e-05	6.36e-05 ± 1e-05	4.54e-05 ± 7.8e-06	–	6.08e-05 ± 1.2e-05	–
A53G C68G	0.000144 ± 2.6e-05	5.82e-05 ± 1e-05	0.00014 ± 1.5e-05	–	–	8.52e-05 ± 9.4e-06	–
A53G C70A	0.000194 ± 2e-05	0.000132 ± 1.6e-05	0.000183 ± 2.6e-05	–	63.2 ± 16	0.000188 ± 2.3e-05	7.6e-05 ± 7e-06
U49G U56G	0.000717 ± 1.9e-05	–	0.000254 ± 4.7e-05	0.000484 ± 5.8e-05	4760 ± 210	8.38e-05 ± 1.5e-05	–
C50G G60U C61U U69A	7.69e-05 ± 1.1e-05	0.000102 ± 3.2e-05	7.43e-05 ± 1e-05	–	–	7.91e-05 ± 2.6e-05	–
C50U U57A G59C U65A C70U	2.56e-05 ± 4.5e-06	–	–	< 1e-05	293 ± 140	–	< 1e-05
A48G U56A	6.12e-05 ± 9.5e-06	–	4.68e-05 ± 7.6e-06	5.17e-05 ± 8.2e-06	–	–	–
